The text below walks through data of patent publication US20200123515, “TGFBetaR2 ENDONUCLEASE VARIANTS, COMPOSITIONS, AND METHODS OF USE” (bluebird bio, Inc., published 2020).

Series [1] has as its target T1, TGFβR2.B3.F8 I-OnuI HE variant (HEK 293T expression) (Artificial Sequence (parent Ophiostoma …)).
T1 chain: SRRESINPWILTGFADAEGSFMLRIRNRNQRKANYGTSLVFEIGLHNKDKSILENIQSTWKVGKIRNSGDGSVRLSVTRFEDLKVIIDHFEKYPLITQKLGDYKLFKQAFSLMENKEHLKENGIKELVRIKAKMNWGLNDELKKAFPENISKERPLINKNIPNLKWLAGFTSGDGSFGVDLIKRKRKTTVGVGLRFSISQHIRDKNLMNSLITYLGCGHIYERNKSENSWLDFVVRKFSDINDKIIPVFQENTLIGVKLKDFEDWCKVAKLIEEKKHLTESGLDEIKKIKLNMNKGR
In words: cell_activity; rate of generating iRFP-positive cells; chromosomal reporter in HEK 293T. As to the method:
The activity of reprogrammed I-OnuI HEs that target exon 6 of the TGFβR2 gene was measured using a chromosomally integrated fluorescent reporter system (Certo et. al., 2011). Fully reprogrammed I-OnuI HEs that bind and cleave the TGFβR2 target sequence (SEQ ID NO: 11) were cloned into mammalian expression plasmids and then individually transfected into a HEK 293T […] cell line that contained the TGFβR2 target sequence upstream of an out-of-frame gene encoding the fluorescent iRFP protein. Cleavage of the embedded target site by the HE and the accumulation of indels following DNA repair via the non-homologous end joining (NHEJ) pathway results in approximately one out of three repaired loci placing the fluorescent reporter gene back “in-frame”. The percentage of iRFP fluorescing HEK 293T cells is therefore used a readout of endonuclease activity at the chromosomally embedded target sequence. […] FIG. 3 (top graph).
A secondary I-OnuI variant library was next generated by performing random mutagenesis on the TGFβR2.B3 HE variant (e.g., SEQ ID NO: 6). Display-based flow sorting was performed under more stringent cleavage conditions in an effort to isolate variants with improved catalytic efficiency. […] FIG. 3 (bottom graph).

Series [2] deals with T2, TGFβR2.B3.F8 I-OnuI HE variant (yeast surface display) (Artificial Sequence (parent Ophiostoma …)).
T2 chain: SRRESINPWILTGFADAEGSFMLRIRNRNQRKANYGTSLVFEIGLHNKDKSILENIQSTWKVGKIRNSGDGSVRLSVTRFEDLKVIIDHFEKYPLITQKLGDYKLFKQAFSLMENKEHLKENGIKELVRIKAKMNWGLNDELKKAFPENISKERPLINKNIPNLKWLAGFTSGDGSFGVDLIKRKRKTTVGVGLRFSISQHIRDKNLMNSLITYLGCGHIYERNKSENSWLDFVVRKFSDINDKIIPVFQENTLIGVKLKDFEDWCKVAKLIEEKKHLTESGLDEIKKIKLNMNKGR
As to the kind of experiment: flow; sub-nanomolar affinity stated; yeast surface affinity titration, exact value only in figure. The note with it: tags: yeast surface display.

B1: TGFβR2 exon 6 I-OnuI HE variant target site (dsDNA)
DNA 1: CGACCAGAAATTCCCAGCTTCT
DNA 2: AGAAGCTGGGAATTTCTGGTCG
With B1, the activity in series [1] is approximately 4 fold vs TGFβR2.B3. In addition, in series [2], the Kd is less than 1 nM.

What is called Kd is a measure of binding affinity in units of concentration.
